Test [1] concerns the target extracellular domain of CD123/IL-3Rα (residues 1-306), histidine tagged (human) (UniProt P26951). In words: ELISA on plate-coated His-tagged protein, A450. (In general: An ELISA detects its analyte on a solid surface through an enzyme-linked reagent.)
Test [2] addresses IL3Rα (1-100) chimeric receptor protein: IL3Rα residues 1-100 fused to GMRα residues 115-325, His-tagged (human) (UniProt P15509). In words: ELISA on plate-coated His-tagged protein, A450.

By EC50 is commonly meant the concentration giving half of the maximal effect. A lower EC50 goes with a more potent agent.

Chain of IL3Rα (1-100) chimeric receptor protein: IL3Rα residues 1-100 fused to GMRα residues 115-325, His-tagged (human) (P15509 other isoform, or with tags, fused parts or gaps mutant limits assumed, form in doubt): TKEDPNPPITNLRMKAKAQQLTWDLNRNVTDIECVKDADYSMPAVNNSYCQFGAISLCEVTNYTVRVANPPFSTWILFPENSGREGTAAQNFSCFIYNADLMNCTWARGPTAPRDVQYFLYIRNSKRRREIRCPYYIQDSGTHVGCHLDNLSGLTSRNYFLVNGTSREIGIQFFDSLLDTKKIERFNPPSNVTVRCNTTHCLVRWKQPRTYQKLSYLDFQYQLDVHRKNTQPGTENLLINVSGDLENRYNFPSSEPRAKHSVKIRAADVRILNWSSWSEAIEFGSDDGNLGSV
Chain of extracellular domain of CD123/IL-3Rα (residues 1-306), histidine tagged (human) (P26951 19-306): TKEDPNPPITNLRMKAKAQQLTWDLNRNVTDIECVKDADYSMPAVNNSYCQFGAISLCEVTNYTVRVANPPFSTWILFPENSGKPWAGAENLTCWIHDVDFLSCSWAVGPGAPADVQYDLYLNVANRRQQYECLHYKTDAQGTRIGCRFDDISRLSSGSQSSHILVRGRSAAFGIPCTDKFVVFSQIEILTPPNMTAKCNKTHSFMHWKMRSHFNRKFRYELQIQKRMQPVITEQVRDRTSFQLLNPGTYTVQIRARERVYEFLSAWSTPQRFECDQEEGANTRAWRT

For ch7G3 (antibody), the results for the concentration giving a half-maximal response (EC50) in test [1] and in test [2] were 0.027 nM and 0.0306 nM, respectively.

These data come from US20180079819A1.
